Laboratory results from paper PMC9237092, “Structural basis for defective membrane targeting of mutant enzyme in human VLCAD deficiency” (Nature Communications, 2022).
Changes are numbered by the printed parent chain. Numbers in names are those of the source.

B1: full-length human VLCAD (very long-chain acyl-CoA dehydrogenase) lacking its cleavable leader sequence, wild type (enzyme, UniProt P49748 41-655, looked up)
chain: AGGAAQLALDKSDSHPSDALTRKKPAKAESKSFAVGMFKGQLTTDQVFPYPSVLNEEQTQFLKELVEPVSRFFEEVNDPAKNDALEMVEETTWQGLKELGAFGLQVPSELGGVGLCNTQYARLVEIVGMHDLGVGITLGAHQSIGFKGILLFGTKAQKEKYLPKLASGETVAAFCLTEPSSGSDAASIRTSAVPSPCGKYYTLNGSKLWISNGGLADIFTVFAKTPVTDPATGAVKEKITAFVVERGFGGITHGPPEKKMGIKASNTAEVFFDGVRVPSENVLGEVGSGFKVAMHILNNGRFGMAAALAGTMRGIIAKAVDHATNRTQFGEKIHNFGLIQEKLARMVMLQYVTESMAYMVSANMDQGATDFQIEAAISKIFGSEAAWKVTDECIQIMGGMGFMKEPGVERVLRDLRIFRIFEGTNDILRLFVALQGCMDKGKELSGLGSALKNPFGNAGLLLGEAGKQLRRRAGLGSGLSLSGLVHPELSRSGELAVRALEQFATVVEAKLIKHKKGIVNEQFLLQRLADGAIDLYAMVVVLSRASRSLSEGHPTAQHEKMLCDTWCIEAAARIREGMAALQSDPWQQELYRNFKSISKALVERGGVVTSNPLGF
notes: mature protein aa 1-615. numbers count on: the mature protein; pET19b vector; also called wild-type VLCAD; full-length VLCAD; source: E. coli BL21(DE3), purified (Ni-NTA, SEC)
B2: full-length human VLCAD L462P (enzyme, UniProt P49748 41-655, looked up)
chain: B1 chain with L462P
notes: Mutation observed in patients with VLCAD deficiency; made by site-directed mutagenesis of the pET19b construct; also called L462P mutant; source: E. coli BL21(DE3), purified (Ni-NTA, SEC)
B3: full-length human VLCAD A450P (enzyme, UniProt P49748 41-655, looked up)
chain: B1 chain with A450P
notes: Mutation observed in patients with VLCAD deficiency; made by site-directed mutagenesis of the pET19b construct; also called A450P variant; source: E. coli BL21(DE3), purified (Ni-NTA, SEC)

Molecular target: the molecule itself
Assay: SEC; Superdex 200 10/300 GL, 4 °C, 250 mM NaCl, 50 mM Tris, pH 8.0; purified VLCAD proteins; peak at ~150 kDa

Protein	stoichiometry N
B1	2
B2	2
B3	2
